One substance from publication PMC546161 can be followed below.

The target in assay [1] is His-Cdt1(193–447) (Xenopus) (UniProt Q9I9A7). Kind of assay: Coomassie densitometry of the purified complex on SDS-PAGE.
Assay [2] has the same target. Kind of assay: SEC + other: glycerol gradient sedimentation.

UniProt Q9I9A7, sequence (Q9I9A7 193-447): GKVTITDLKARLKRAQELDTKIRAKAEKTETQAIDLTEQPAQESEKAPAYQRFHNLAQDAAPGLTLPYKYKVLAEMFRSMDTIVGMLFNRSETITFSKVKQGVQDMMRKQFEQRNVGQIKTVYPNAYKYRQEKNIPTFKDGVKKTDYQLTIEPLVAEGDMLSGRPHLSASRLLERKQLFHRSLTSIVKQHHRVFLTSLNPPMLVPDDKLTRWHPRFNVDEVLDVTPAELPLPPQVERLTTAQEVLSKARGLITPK

As to “mini-geminin (residues 87–168), S-tagged (domain or fragment)”, the stoichiometry N (mini-geminin per Cdt1(193–447)) in assay [1] was found to be 1.9; in assay [2], 2.
